In PMC8184850, “Cryo-EM structure of TFIIH/Rad4–Rad23–Rad33 in damaged DNA opening in nucleotide excision repair” (Nature Communications, 2021):

Assays:
[1] = molecular target: T1, 10-subunit holoTFIIH (coreTFIIH with TFIIK: Kin28–Ccl1–Tfb3) (Saccharomyces cerevisiae | yeast, UniProt Q00578 1-843; P06839 1-778; P32776 1-642; Q02939 1-513; Q04673 1-461; Q12004 …); assay: co-sedimentation; 10–40% glycerol gradient (20 mM HEPES, 150 mM potassium acetate, 2 mM magnesium acetate, 4 mM DTT, 2 mM ATP or AMP-PNP), 52,000 rpm 6 h 35 min, 4 °C; Rad4–Rad23–Rad33 pre-assembled on −24*/+24 AAF-DNA, then added to TFIIH; fractions by SDS-PAGE; details: both partners purified
T1 construct: Ssl2 (XPB homologue), subunit of yeast TFIIH; Rad3 (XPD homologue), subunit of yeast TFIIH; Tfb1 (p62 homologue), subunit of yeast TFIIH; Tfb2 (p52 homologue), subunit of yeast TFIIH; Ssl1 (p44 homologue), subunit of yeast TFIIH; Tfb4 (p34 homologue), subunit of yeast TFIIH; Tfb5 (p8 homologue), subunit of yeast TFIIH; Kin28, kinase subunit of yeast TFIIK; Ccl1, cyclin subunit of yeast TFIIK; …

7-subunit coreTFIIH = molecular target: T2, 7-subunit coreTFIIH (Saccharomyces cerevisiae | yeast, UniProt Q00578 1-843; P06839 1-778; P32776 1-642; Q02939 1-513; Q04673 1-461; Q12004 …); assay: co-sedimentation; factor challenge: Rad2 added (~6-fold molar excess) to TFIIH/Rad4–23–33/AAF-DNA with ATP, 60 min, then 10–40% glycerol gradient (150 mM potassium acetate, 2 mM ATP), 4 °C; SDS-PAGE and densitometry; details: both partners purified
T2 construct: Ssl2 (XPB homologue), ATPase/translocase subunit of yeast coreTFIIH; printed numbering runs to residue 843; Rad3 (XPD homologue), helicase subunit of yeast coreTFIIH; Tfb1 (p62 homologue), subunit of yeast coreTFIIH; Tfb2 (p52 homologue), subunit of yeast coreTFIIH; Ssl1 (p44 homologue), subunit of yeast coreTFIIH; Tfb4 (p34 homologue), subunit of yeast coreTFIIH; Tfb5 (p8 homologue), subunit of …

coreTFIIH (7 subunits) = coreTFIIH (7 subunits) (Saccharomyces cerevisiae? (yeast, tfb6 …, UniProt Q00578;P06839;P32776;Q02939;Q04673;Q12004;Q3E7C1 …)); assay: glycerol gradient sedimentation; ATP; EMSA: 20 mM HEPES, 100 mM K-acetate, 2 mM Mg-acetate, 5 mM DTT, room temperature 20 min, 250 nM each component, 0.2x TBE agarose gel at 4 C (pH not stated in this buffer); details: protein: native; tags: TAP tags on Tfb4 and Ssl2; TEV-treated; copies: 1;1;1;1;1;1;1; label: 32P 5' end (T4 PNK) in EMSA; 5' overhang on strand 1: 9 nt from printed strands (text says 10 nt)

B1: Rad4–Rad23–Rad33 complex (complex, yeast)
chain 1: MNEDLPKEYFELIRKALNEKEAEKAPLSRRRRVRRKNQPLPDAKKKFKTGLNELPRESVVTVNLDSSDDGVVTVPTDDSVEEIQSSEEDYDSEEFEDVTDGNEVAGVEDISVEIKPSSKRNSDARRTSRNVCSNEERKRRKYFHMLYLVCLMVHGFIRNEWINSKRLSRKLSNLVPEKVFELLHPQKDEELPLRSTRKLLDGLKKCMELWQKHWKITKKYDNVGLYMRTWKEIEMSANNKRKFKTLKRSDFLRAVSKGHGDPDISVQGFVAMLRACNVNARLIMSCQPPDFTNMKIDTSLNGNNAYKDMVKYPIFWCEVWDKFSKKWITVDPVNLKTIEQVRLHSKLAPKGVACCERNMLRYVIAYDRKYGCRDVTRRYAQWMNSKVRKRRITKDDFGEKWFRKVITALHHRKRTKIDDYEDQYFFQRDESEGIPDSVQDLKNHPYYVLEQDIKQTQIVKPGCKECGYLKVHGKVGKVLKVYAKRDIADLKSARQWYMNGRILKTGSRCKKVIKRTVGRPKGEAEEEDERLYSFEDTELYIPPLASASGEITKNTFGNIEVFAPTMIPGNCCLVENPVAIKAARFLGVEFAPAVTSFKFERGSTVKPVLSGIVVAKWLREAIETAIDGIEFIQEDDNRKEHLLGALESWNTLLLKLRIRSKLNSTYGKIAEEEPNVTKEQNIADNHDNTETFMGGGFLPGIANHEARPYSEPSEPEDSLDYVSVDKAEESATDDDVGEDYSDFMKELEMSEESD
chain 2: MVSLTFKNFKKEKVPLDLEPSNTILETKTKLAQSISCEESQIKLIYSGKVLQDSKTVSECGLKDGDQVVFMVSQKKSTKTKVTEPPIAPESATTPGRENSTEASPSTDASAAPAATAPEGSQPQEEQTATTERTESASTPGFVVGTERNETIERIMEMGYQREEVERALRAAFNNPDRAVEYLLMGIPENLRQPEPQQQTAAAAEQPSTAATTAEQPAEDDLFAQAAQGGNASSGALGTTGGATDAAQGGPPGSIGLTVEDLLSLRQVVSGNPEALAPLLENISARYPQLREHIMANPEVFVSMLLEAVGDNMQDVMEGADDMVEGEDIEVTGEAAAAGLGQGEGEGSFQVDYTPEDDQAISRLCELGFERDLVIQVYFACDKNEEAAANILFSDHAD
chain 3: MSKSTNVSYERVELFENPKVPIEVEDEILEKYAESSLDHDMTVNELPRFFKDLQLEPTIWKLVRNEDVIIEGTDVIDFTKLVRCTCQLLILMNNLTVIDDLWSMLIRNCGRDVDFPQVALRDHVLSVKDLQKISNLIGADQSSGTIEMISCATDGKRLFMTYLDFGCVLGKLGYLKM
notes: Rad4 (XPC homologue), yeast; Rad23 (RAD23B homologue), yeast; Rad33 (CETN2 homologue), yeast; plasmid pETDuet-RAD33; also called Rad4–23–33; yeast homologue of XPC–RAD23B–CETN2; copies: + +
- binding result [1]: binds

B2: Rad2 (natural protein, yeast, UniProt P07276 1-1031, looked up)
chain: MGVHSFWDIAGPTARPVRLESLEDKRMAVDASIWIYQFLKAVRDQEGNAVKNSHITGFFRRICKLLYFGIRPVFVFDGGVPVLKRETIRQRKERRQGKRESAKSTARKLLALQLQNGSNDNVKNSTPSSGSSVQIFKPQDEWDLPDIPGFKYDKEDARVNSNKTFEKLMNSINGDGLEDIDLDTINPASAEFEELPKATQYLILSSLRLKSRLRMGYSKEQLETIFPNSMDFSRFQIDMVKRRNFFTQKLINTTGFQDGGASKLNEEVINRISGQKSKEYKLTKTNNGWILGLGANDGSDAQKAIVIDDKDAGALVKQLDSNAEDGDVLRWDDLEDNSLKIVRHESSNATTAPQKRSNRSEDEGCDSDECEWEEVELKPKNVKFVEDFSLKAARLPYMGQSLNNAGSKSFLDKRHDQASPSKTTPTMRISRISVEDDDEDYLKQIEEIEMMEAVQLSKMEKKPEADDKSKIAKPVTSKGTEARPPIVQYGLLGAQPDSKQPYHVTNLNSKSESVIKRTSKTVLSEFRPPSQQEDKGAILTEGEQNLNFISHKIPQFDFNNENSLLFQKNTESNVSQEATKEKSPIPEMPSWFSSTASQQLYNPYNTTNFVEDKNVRNEQESGAETTNKGSSYELLTGLNATEILERESEKESSNDENKDDDLEVLSEELFEDVPTKSQISKEAEDNDSRKVESINKEHRKPLIFDYDFSEDEEDNIVENMIKEQEEFDTFKNTTLSTSAERNVAENAFVEDELFEQQMKDKRDSDEVTMDMIKEVQELLSRFGIPYITAPMEAEAQCAELLQLNLVDGIITDDSDVFLFGGTKIYKNMFHEKNYVEFYDAESILKLLGLDRKNMIELAQLLGSDYTNGLKGMGPVSSIEVIAEFGNLKNFKDWYNNGQFDKRKQETENKFEKDLRKKLVNNEIILDDDFPSVMVYDAYMRPEVDHDTTPFVWGVPDLDMLRSFMKTQLGWPHEKSDEILIPLIRDVNKRKKKGKQKRINEFFPREYISGDKKLNTSKRISTATGKLKKRKM
notes: Rad2 (XPG homologue), yeast; plasmid pGVD52-RAD2HisSumo; also called yeast homolog of XPG; source: E. coli Rosetta(DE3), purified (HisTrap, Ulp1 cleavage, HisTrap flow-through, Heparin HP)
- percent of TFIIH dissociated from Rad4–Rad23–Rad33 and bound to Rad2 (Rad2 in ~6-fold molar excess, ATP) (7-subunit coreTFIIH): ~50%

B3: -24*/+24 AAF (dsDNA)
DNA 1: CCCATTCCAACCATCCCACTACCTGTCCATCTTCACTCAACTATCACCC
DNA 2: GGGTGATAGTTGAGTGAAGATGGACAGGTAGTGGGATGGT
modifications: N-2-acetylaminofluorene adduct on the single G of strand 1 (nt 25, position 0)
- binding result (coreTFIIH (7 subunits)): binds
